# B1: Staphylococcal enterotoxin A (SEA), wild type (ligand)
# chain: SEKSEEINEKDLRKKSELQGTALGNLKQIYYYNEKAKTENKESHDQFLQHTILFKGFFTDHSWYNDLLVDFDSKDIVDKYKGKKVDLYGAYYGYQCAGGTPNKTACMYGGVTLHDNNRLTEEKKVPINLWLDGKQNTVPLETVKTNKKNVTVQELDLQARRYLQEKYNLYNSDVFDGKVQRGLIVFHTSTEPSVNYDLFGAQGQYSNTLLRIYRDNKTINSENMHIDIYLYTS
# Target: T1, HLA-DR1 (DR1αβ; DRA and DRB1*0101) on cells (human)
# T1 construct: whole, on cells
# Experiment: flow cytometry on human MHC class II expressing cells
binder,measurement,value
B1,binding result,binds

# From patent EP1105154B1 (Walter Reed Army Institute of Research, dated 2016)
